Results: patent publication US20110166203A1, “ANTI-HEPATITIS C VIRUS COMPOSITION” (OSAKA UNIVERSITY, priority 2008, published 2011)

Columns and labels:
PA28γ gene = assay: Selection of RNA interference target sequence by PA28γ expression suppressing effect; assay type: cell-based, human; conditions: among four target sequences from the open reading frame of the PA28γ gene
Text: A DNA fragment that encodes a short hairpin RNA for knocking down the human PA28γ gene by RNA interference was designed according to the following procedure.
The following four sequences were selected as the target sequences from the open reading frame of the PA28γ gene.
The sequence of SEQ ID NO: 4 corresponds to positions 16 to 36 of the PA28γ coding region represented by SEQ ID NO: 5.

PA28γ = PA28γ detection by western blotting in shRNA-transfected Huh7 OK1 clones; assay type: cell-based, human; conditions: clones C5 and C7 vs Huh7 Ok1 cells and control shRNA cells
Experimental: The DNA fragment was incorporated between the BamHI and Hind III sites of a pSilencer 2.1 U6-hygro vector (Ambion; Austin, Tex.), and introduced by lipofection to Huh7 OK1 cells sensitive to the hepatitis C virus JFH1 strain. The cells were then cultured for 1 week in a 10% fetal bovine serum Dulbecco's modified Eagle's medium supplemented with 0.1 mg/mL hygromycin. The cells were cloned by limiting dilution, and two clones, named C5 and C7, with low PA28γ expression levels were selected by western blotting.
Separately, a commercially available pSilencer 2.1-U6 hygro negative control vector (Ambion) having no complementarity to human PA28γ gene was treated by the same procedure to establish single clones that had the same PA28γ expression level as the parental strain (control cells; hereinafter, also referred to as “control shRNA”).
The Huh7 Ok1 cells, the control cells, and the PA28γ knockdown cells C5 and C7 were lysed, and the lysate was subjected to SDS-polyacrylamide gel electrophoresis for the detection of PA28γ and β-actin by western blotting using anti-PA28γ antibody (Affiniti) and anti-actin antibody (Sigma Aldrich Japan).

hepatitis C virus JFH1 = assay: Virus titer of culture supernatant after JFH1 infection of PA28γ constant knockdown cells; assay type: cell-based; conditions: empty plasmid transfected; JFH1 MOI 0.024; 10 days culture; knockdown cells vs control cells
Experimental: The control cells (control shRNA) and PA28γknockdown cells C5 and C7 were transfected with pEFFLAGGspGBK or pEFFLAGGsPA28gammaSI plasmid. The next day, the medium was replaced with 10% fetal bovine serum Dulbecco's modified Eagle's medium supplemented with 3 μg/mL puromycin, and the cells were further cultured for 24 hours. The surviving cells were then inoculated in a 12-well plate (2.5×10^4 cells/well), and infected with hepatitis C virus JFH1 at an MOI of 0.024.
The JFH1 gene-containing plasmid pJFH1 was cut with XbaI enzyme, blunted with Mung Bean nuclease, and virus RNA was synthesized using a MEGAscript T7 kit (Ambion). The virus RNA was transfected into Huh7 OK1 cells by electroporation under the conditions 260 V and 960 μF. […] Using Huh7 OK1, the virus titer (ffu/mL) of the culture supernatant was measured according to the method of Wakita et al. (Nat. Med. 11:791-796, 2005), as follows. The Huh7 OK1 cells were infected with the culture supernatant to be measured at 37° C. for 3 hours. […]
The rabbit anti-NS5A antibody prepared by immunizing the peptide from the amino acid residues 409 to 422 of NS5A according to the method described in J. Virol. 79:13473-13482, 2005 was allowed to react with Alexa Fluor® 488-anti-rabbit IgG antibody (Molecular Probe), and the fluorescent cell foci were counted to calculate the virus titer.

HCV replicon RNA = assay: HCV replicon Renilla luciferase replication assay in control and PA28γ knockdown cells; assay type: cell-based, hepatitis C virus; conditions: knockdown cells C5 (KD5) vs control cells (Cntrl5), 24, 48, 96 h normalized to 4 h
Experimental: Virus replication by replicon was evaluated in the same manner except that the control cells and knockdown cells prepared in Section 1 above were used, as described in Krieger et al. (Krieger et al., J. Virol., 75:4614-4624, 2001).
A cDNA encoding Renilla luciferase was introduced between AscI and PmeI of a plasmid pFK-1389 neo/NS3-3′/NK5.1, instead of a neogene. The resulting plasmid pFK-1389 hRL/NS3-3/NK5.1 was cleaved at ScaI, and […] in vitro using a MEGAscript T7 kit (Ambion). A suspension of Huh7 cells (10×10^6 cells/mL) was prepared, and 400 μl of the suspension was mixed with 10 μg of in vitro transcription RNA. This was followed by electroporation performed under the conditions 270 V and 960 μF using a Gene Pulser™ (Bio-Rad). The electroporated cells were suspended in 25-ml medium, and inoculated in a 12-well culture plate (1 ml/well). Then, luciferase activities at hour 4, 24, 48, and 96 post infection were measured using a Renilla Luciferase assay system (Promega).
The synthesized HCV replicon RNA, and the HCV replicon GND RNA with the inactivated RNA polymerase activity were transfected into control shRNA cells and PA28γ knockdown cells C5, and luciferase activity was measured.
The measured values in each combination were normalized by dividing the values after 24, 48, and 96 hours by the value after 4 hours.

B1: shRNA against PA28γ: short hairpin RNA against target sequence SEQ ID NO: 4 (…), encoded by DNA fragment SEQ ID NO: 6 in pSilencer 2.1 U6-hygro vector (nucleic acid)
DNA: GGATCCGGTGGATCAGGAAGTGAAGTTCAAGAGACTTCACTTCCTGATCCACCTTTTTTGGAAAAGCTT
modifications: the letters are possibly those of the target site
PA28γ gene
  PA28γ expression suppressing effect: remarkable expression suppressing effect
PA28γ
  PA28γ expression level: lower PA28γ expression levels
Hepatitis C virus JFH1
  virus production (virus titer): significantly lower
HCV replicon RNA
  luciferase value (virus replication by replicon): no difference in luciferase value
